Assay results as given in paper PMC2064651.

Biological target: ADP/ATP carrier (S. cerevisiae (endogenous in strain GA74)) (UniProt P18239)
Assay: native gel or EMSA

- stoichiometry N: 2
Substance: ADP/ATP carrier (from UniProt P18239 1-318) (natural protein)
